These are literature values, as cited in article PMC4191058.

This data set addresses NS1 (Influenza A virus) (UniProt Q8QPI8).

By Kd is commonly meant the free concentration of one partner at which half of the binding sites on the other are occupied at equilibrium, for simple one-to-one binding. With NS1 (from UniProt Q8QPI8), the Kd is 90 µM.
